Data on one protein can be found in publication PMC5514376 (The Journal of investigative dermatology, 2016).

The data set concerns the molecule itself. Briefly: crystal structure.

B1: keratin 1-keratin 10 helix 2B heterodimer (K1-K10-2B) (complex, human)
chain 1: ESLYQSKYEELQITAGRHGDSVRNSKIEISELNRVIQRLRSEIDNVKKQISNLQQSISDAEQRGENALKDAKNKLNDLEDALQQAKEDLARLLRDYQELMNTKLALDLEIATYRTLLEGE
chain 2: EAWFNEKSKELTTEIDNNIEQISSYKSEITELRRNVQALEIELQSQLALKQSLEASLAETEGRYCVQLSQIQAQISALEEQLQQIRAETECQNTEYQQLLDIKIRLENEIQTYRSLLEGE
Turning to B1, the binding result was “binds”.
